# In paper PMC11193018 (The Journal of Biological Chemistry, 2024):
# Tests used:
# [1] = biological target: MjGINS-M, dimeric mutant of MjGINS (K58A, K74A, K78A, I101A, I105A) (Methanocaldococcus jannaschii); assay: SEC
# [2] = biological target: MjGINS domain A (residues 21-115), as crystallized (Methanocaldococcus jannaschii); assay: crystal structure
# [3] = biological target: Methanocaldococcus jannaschii GINS, wild type, non-His-tagged (Methanocaldococcus jannaschii); assay: SEC
# [4] = biological target: the molecule itself; assay: crystal structure
# [5] = biological target: the molecule itself; assay: SEC
molecule,measurement,setting,value
"MjGINS-M, dimeric mutant of MjGINS (K58A, K74A, K78A, I101A, I105A) (natural protein)",stoichiometry N,[1],2
"MjGINS domain A (residues 21-115), as crystallized (domain or fragment)",stoichiometry N,[2],4
"Methanocaldococcus jannaschii GINS, wild type, non-His-tagged (natural protein)",stoichiometry N,[3],4
"Methanocaldococcus jannaschii RecJ2, tag-free, for crystallization (enzyme) MMEKLKEIEKVTKAIKEKILNHYGYIRVITHHDTDGLSSGGILAKMLMRTNKLFHLTVVEHLSKEVIEKLAKENEVNKPLFIFADMGSGQIEEIIKHNFNAIILDHHPPVIKDSFINENIIQLNPHIFGVDGSREITASGVCYLVAREFGYYDLSVLAIVGIIGDMQYNPLLGLNKFIVNEAREYRYVKIMNDIVYNIYDVEIYKAIAYCTKPYIPDLASEGKAFKFLKDIGIDPNKKQLDDTDKKKLLSAIIFKYPKIENLLIDRYLIEHKVRDAFLLSEMLNAVGRNGLFAVGIGICLEDDECIKIGNQILWEYKKNLINELKSVKLKKLNNIYYFEGKKGMIGIIASILVDDKPVIGYHIEGDIAKFSARGNRDLVNRGLNLSVAMAVAKEFGGNGGGHDVASGAVVSKDKVQEFLKRVDEIIGEQLRR",stoichiometry N,[4],2
"Methanocaldococcus jannaschii RecJ2, wild type, His-tagged (enzyme) MMEKLKEIEKVTKAIKEKILNHYGYIRVITHHDTDGLSSGGILAKMLMRTNKLFHLTVVEHLSKEVIEKLAKENEVNKPLFIFADMGSGQIEEIIKHNFNAIILDHHPPVIKDSFINENIIQLNPHIFGVDGSREITASGVCYLVAREFGYYDLSVLAIVGIIGDMQYNPLLGLNKFIVNEAREYRYVKIMNDIVYNIYDVEIYKAIAYCTKPYIPDLASEGKAFKFLKDIGIDPNKKQLDDTDKKKLLSAIIFKYPKIENLLIDRYLIEHKVRDAFLLSEMLNAVGRNGLFAVGIGICLEDDECIKIGNQILWEYKKNLINELKSVKLKKLNNIYYFEGKKGMIGIIASILVDDKPVIGYHIEGDIAKFSARGNRDLVNRGLNLSVAMAVAKEFGGNGGGHDVASGAVVSKDKVQEFLKRVDEIIGEQLRR",stoichiometry N,[5],2
